Patent US20240117030A1 (Pfizer, published 2024)
Substitutions are numbered along the chain they refer to. Read-outs that look alike come from different tables or passages of the source.

Columns and labels:
recombinant human IL-4 [1] = target: T1, recombinant human IL-4 (human, UniProt P05112 25-153); assay: cell-based or functional assay
T1 sequence (looked up): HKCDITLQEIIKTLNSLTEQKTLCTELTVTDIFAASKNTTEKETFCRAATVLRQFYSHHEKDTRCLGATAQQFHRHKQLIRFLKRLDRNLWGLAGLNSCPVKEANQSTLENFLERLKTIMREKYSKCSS

recombinant human IL-4 [2] = target: T1, recombinant human IL-4; assay: cell-based or functional assay; remark: listed apart in the source
[3] = target: T2, recombinant cynomolgus monkey IL-4 (cynomolgus monkey, UniProt P79339 25-153); assay: cell-based or functional assay
T2 sequence (looked up): T1 sequence (looked up) with E26K, V29I, F33L

recombinant human IL-4 [4] = target: T1, recombinant human IL-4; assay: cell-based or functional assay; remark: listed apart in the source
recombinant human IL-13 [5] = target: T3, recombinant human IL-13 (human, UniProt P35225 35-146); assay: cell-based or functional assay
T3 sequence (P35225 35-146 limits assumed): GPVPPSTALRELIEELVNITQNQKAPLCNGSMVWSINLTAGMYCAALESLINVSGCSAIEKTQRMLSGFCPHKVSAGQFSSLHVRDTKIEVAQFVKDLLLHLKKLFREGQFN

recombinant human IL-13 [6] = target: T3, recombinant human IL-13; assay: cell-based or functional assay; remark: listed apart in the source
[7] = target: T4, recombinant cynomolgus monkey IL-13 (cynomolgus monkey, UniProt Q0PW92 19-132); assay: cell-based or functional assay
T4 sequence (Q0PW92 entry or part of it limits assumed): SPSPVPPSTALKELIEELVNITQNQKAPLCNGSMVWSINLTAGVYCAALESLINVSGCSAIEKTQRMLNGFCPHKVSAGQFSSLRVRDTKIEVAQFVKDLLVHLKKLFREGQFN

recombinant human IL-13 [8] = target: T3, recombinant human IL-13; assay: cell-based or functional assay; remark: listed apart in the source
recombinant human IL-4 [9] = target: T1, recombinant human IL-4; assay: KinExA, fixed antigen format
Procedure: (§1) Samples were prepared in PBS containing 0.1% sodium azide and 1.0 mg/ml BSA. The fixed antigen assay method was used to determine binding affinity. […] Each trispecific and IL-4 cytokine were equilibrated for at least 72 hours at room temperature, then passed through a flow cell containing Polymethylmethacrylate (PMMA) beads coated with anti-hIL-4 Ab-0002 (Pfizer) that contains the same IL-4 binding domain as the trispecifics. […] Data analysis was performed with KinExA Pro software version 4.3.11 (Sapidyne). […] The ‘drift correction’ fitting option was used when responses varied between replicate injections. Two curves were obtained in independent experiments and analyzed using the ‘n-curve analysis’ tool to obtain global best fit values for the KD and active concentration of IL-4 cytokine. The software reports each best fit value along with a 95% confidence interval.

[10] = target: T2, recombinant cynomolgus monkey IL-4; assay: KinExA, fixed antigen format
Procedure: as §1

recombinant human IL-13 [11] = target: T3, recombinant human IL-13; assay: KinExA, fixed antigen format
Procedure: (§2) Samples were prepared in PBS containing 0.1% sodium azide and 1.0 mg/ml BSA. The fixed antigen assay method was used to determine binding affinity. […] Data analysis was performed with KinExA Pro software version 4.3.11 (Sapidyne). […] The ‘drift correction’ fitting option was used when responses varied between replicate injections. Two curves were obtained in independent experiments and analyzed using the ‘n-curve analysis’ tool to obtain global best fit values for the KD and active concentration of IL-13 cytokine. The software reports each best fit value along with a 95% confidence interval.

[12] = target: T4, recombinant cynomolgus monkey IL-13; assay: KinExA, fixed antigen format
Procedure: as §2

B1: IL413TSLP-1024 (other)
heavy: not shown
chain 1: DIQMTQSPSSLSASVGDRVTITCKASESVDHFGWSLVHWYQQKPGKAPKLLIYRASNLESGVPSRFSGSGSGTDFTLTISSLQPEDFATYYCQQSNEDPWTFGGGTKVEIKRTVAAPSVFIFPPSDEQLKSGTASVVCLLNNFYPREAKVQWKVDNALQSGNSQESVTEQDSKDSTYSLSSTLTLSKADYEKHKVYACEVTHQGLSSPVTKSFNRGECGGGGSEVTLRESGPALVKPTQTLTLTCTFSGFSLSNFGEGLSWIRQPPGKGLEWLAHIYWDDDKRYNPSLKSRLTISKDTSRNQVVLTMTNMDPVDTATYYCARRETVFYWYFDVWGQGTTVTVSSASTKGPSVFPLAPSSKSTSGGTAALGCLVKDYFPEPVTVSWNSGALTSGVHTFPAVLQSSGLYSLSSVVTVPSSSLGTQTYICNVNHKPSNTKVDKKVEPKSCEKTHTCPPCPAPEAAGAPSVFLFPPKPKDTLMISRTPEVTCVVVDVSHEDPEVKFNWYVDGVEVHNAKTKPREEQYNSTYRVVSVLTVLHQDWLNGKEYKCKVSNKALPAPIEKTISKAKGQPREPQVYTLPPSREEMTKNQVSLTCEVKGFYPSDIAVEWESNGQPENNYKTTPPVLDSDGSFFLYSKLTVDKSRWQQGNVFSCSVLHEALHSHYTQKSLSLSPGK
light 1: SYVLTQPPSVSVAPGQTARITCGGNNLGSKSVHWYQQKPGQAPVLVVYDDKDRPSWIPERFSGSNSGNTATLTISRGEAGDEADYYCQVWDSKSDHVVFGGGTKLTVLGQPKAAPSVTLFPPSSEELQANKATLVCLISDFYPGAVTVAWKADSSPVKAGVETTTPSKQSNNKYAASSYLSLTPEQWKSHRSYSCQVTHEGSTVEKTVAPTECS
light 2: DIQMTQSPSSLSASVGDRVTITCRASQSVDEEGDSYMNWYQQKPGKAPKLLIYAASNLESGVPSRFSGSGSGTDFTLTISSLQPEDFATYYCQQSNKDPPTFGGGTKVEIKRTVAAPSVFIFPPSDEQLKSGTASVVCLLNNFYPREAKVQWKVDNALQSGNSQESVTEQDSKDSTYSLSSTLTLSKADYEKHKVYACEVTHQGLSSPVTKSFNRGEC
chain 2: EVQLVESGGGLVQPGGSLRLSCAASGFTFSSYAMSWVRQAPGKGLEWVASISSGDTTYYPDSVKGRFTISRDNAKNSLYLQMNSLRAEDTAVYYCARNEGYYFGLTLWGQGTLVTVSSASTKGPSVFPLAPSSKSTSGGTAALGCLVKDYFPEPVTVSWNSGALTSGVHTFPAVLQSSGLYSLSSVVTVPSSSLGTQTYICNVNHKPSNTKVDKKVEPKSC
notes: Trispecific Tri-Fab-Fc, dual cell, RR-EE, LS; Chains in order: SFab HC(3), DFab LC(1)-HC(2), SFab LC(3), DFab LC(2), modified Fd(1)
IC50 (median), IL-4 induced CD23 expression on human monocytes (recombinant human IL-4 [1]): 0.00827 nM | IC50 (median), CD23 expression, Human Whole Blood (recombinant human IL-4 [2]): 0.0236 nM | IC50 (median), CD23 expression, Peripheral Blood Monocytes (recombinant human IL-4 [2]): 0.00827 nM | IC50 (median), CD23 expression, Human Whole Blood [3]: 0.0164 nM | IC50 (median), CD23 expression, Peripheral Blood Monocytes [3]: 0.0101 nM | IC50 (median), IL-4 induced CD23 expression on human monocytes (recombinant human IL-4 [4]): 0.00827 nM | IC50 (median), IL-13 induced CD23 expression on human monocytes (recombinant human IL-13 [5]): 0.013 nM | IC50 (median), CD23 expression, Human Whole Blood (recombinant human IL-13 [6]): 0.0102 nM | IC50 (median), CD23 expression, Peripheral Blood Monocytes (recombinant human IL-13 [6]): 0.013 nM | IC50 (median), CD23 expression, Human Whole Blood [7]: 0.0419 nM | IC50 (median), CD23 expression, Peripheral Blood Monocytes [7]: 0.0316 nM | IC50 (median), IL-13 induced CD23 expression on human monocytes (recombinant human IL-13 [8]): 0.013 nM | Kd (recombinant human IL-4 [9]): 0.000323 nM | Kd [10]: < 0.000661 nM | Kd (recombinant human IL-13 [11]): 0.000266 nM | Kd [12]: 0.000581 nM
